Assay results from patent US20220372138A1 (IOMX THERAPEUTICS, published 2022).

What was measured:
[1] = target: T1, extracellular domain (ECD) of human IGSF11 (VSIG3), recombinant (human, UniProt Q5DX21 23-241); assay: ELISA RFU 0.5-1.0
T1 construct: biotinylated where captured on streptavidin; tags of the reagent not always stated; also called IGSF11 (ECD domain); ECD-IGSF11
T1 sequence: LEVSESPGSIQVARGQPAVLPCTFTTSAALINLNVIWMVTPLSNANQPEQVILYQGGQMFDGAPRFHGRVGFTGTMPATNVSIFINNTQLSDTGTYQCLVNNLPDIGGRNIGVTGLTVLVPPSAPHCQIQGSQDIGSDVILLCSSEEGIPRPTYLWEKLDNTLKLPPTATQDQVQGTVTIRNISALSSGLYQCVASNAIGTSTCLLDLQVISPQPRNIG

[2] = target: T2, ECD of murine IGSF11, recombinant biotinylated (mouse, UniProt P0C673 23-240); assay: ELISA RFU 0.5-1.0
T2 construct: whole entry named; also called Mouse IGSF11
T2 sequence: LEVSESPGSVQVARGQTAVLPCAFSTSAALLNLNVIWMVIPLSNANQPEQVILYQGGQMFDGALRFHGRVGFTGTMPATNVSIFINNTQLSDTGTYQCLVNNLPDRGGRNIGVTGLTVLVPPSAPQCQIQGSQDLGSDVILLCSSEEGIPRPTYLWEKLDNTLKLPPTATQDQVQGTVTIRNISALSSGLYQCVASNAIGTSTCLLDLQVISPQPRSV

[3] = target: T3, human IGSF11 (VSIG3) ECD, His-tagged (human, UniProt Q5DX21 23-241); assay: IgG1 ELISA EC50 <0.02 nM
T3 construct: in part bought (SinoBiological 13094-H08H); also called HIS-IGSF11; IGSF11-HIS; not shown: His tag
T3 sequence: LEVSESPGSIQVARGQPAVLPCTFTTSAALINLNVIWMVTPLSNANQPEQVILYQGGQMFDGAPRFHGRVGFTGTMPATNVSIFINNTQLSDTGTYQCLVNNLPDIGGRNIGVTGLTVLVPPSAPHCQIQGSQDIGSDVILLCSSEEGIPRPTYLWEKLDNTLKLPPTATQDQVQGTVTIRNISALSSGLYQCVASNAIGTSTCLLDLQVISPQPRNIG

[4] = target: T2, ECD of murine IGSF11, recombinant …; assay: Fab ELISA
[5] = target: Streptavidin (UniProt P22629 37-163, limits assumed); assay: Fab ELISA
[6] = target: T1, extracellular domain (ECD) of human …; assay: ELISA RFU 0.1-0.5
[7] = target: T2, ECD of murine IGSF11, recombinant …; assay: ELISA RFU 0.1-0.5

Chain of Streptavidin (P22629 37-163 limits assumed): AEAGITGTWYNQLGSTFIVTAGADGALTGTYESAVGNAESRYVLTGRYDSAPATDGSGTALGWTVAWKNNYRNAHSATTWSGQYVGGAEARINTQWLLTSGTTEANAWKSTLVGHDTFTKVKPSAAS

B1: A-006 (scFv format) (scFv, V domains shown)
VH: EVQLVESGGGLIQPGGSLRLSCAASGFTVSSNYMSWVRQAPGKGLEWVSVIYSGGSTYYADSVKGRFTISRDNSKNTLYLQMNSLRAEDTAVYYCARGNPYYYGDLQVNFDYWGQGTLVTVSS
VL: QAVVTQEPSLTVSPGGTVTLTCASSTGAVTSGYYPNWFQQKPGQAPRPLIYSTSNKHSWTPARFSGSLLGGKAALTLSGVQPDDEAEYYCLLYYGGDWVFGGGTKLTVL
notes: scFv
ELISA binding signal (RFU) [1]: 0.5 to 1 rfu
ELISA binding signal (RFU) [2]: 0.5 to 1 rfu

B2: A-013 (scFv format) (scFv, V domains shown)
VH: EVQLVESGGGLIQPGGSLRLSCAASGFTVSSNYMSWVRQAPGKGLEWVSVIYSGGSTYYADSVKGRFTISRDNSKNTLYLQMNSLRAEDTAVYYCARGNPYYYGDLQVNFDYWGQGTLVTVSS
VL: QAVVTQEPSLTVSPGGTVTLTCASSTGAVTSAYYPNWFQQKPGQAPRALIYSTSNKHSWTPARFSGSLLGGKAALTLSGVQPEDEADYYCLLYYGGAWVFGGGTKLTVL
notes: scFv
ELISA binding signal (RFU) [1]: 0.5 to 1 rfu
ELISA binding signal (RFU) [2]: 0.5 to 1 rfu

B3: A-001 (IgG1 format) (antibody, V domains shown)
VH: EVQLVESGGGLVKPGGSLRLSCAASGFTFSSYSMNWVRQAPGKGLEWVSSISSSSSYIYYADSVKGRFTISRDNAKNSLYLQMNSLRAEDTAVYYCVRSIIVQALGITSVFDIWGQGTMVTVSS
VL: AIRLTQSPSSLSASVGDRVTISCRASQIISNHLNWYQQKPGKAPKLLIYAASRLQTGVPSRFSGSGSETDYTLTISSLQPEDFATYYCQQSYSNPRTFGHGTKVEIK
notes: human IgG1 format
EC50 [3]: < 0.02 nM

B4: A-007 (scFv format) (scFv, V domains shown)
VH: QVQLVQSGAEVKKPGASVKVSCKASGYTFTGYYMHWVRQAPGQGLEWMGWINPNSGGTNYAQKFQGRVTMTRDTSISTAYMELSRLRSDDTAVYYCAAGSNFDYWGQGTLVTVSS
VL: QSALTQPASVSGSPGQSITIACTGSSSDIGSFSYVSWYQQRPGKAPTLIIYGVNNRPLGVSRRFSGSKSGNTASLSISGLQAEDEADYYCSSYTRRSTVIFGGGTKLTVL
notes: scFv
ELISA binding signal (RFU) [1]: 0.5 to 1 rfu
ELISA binding signal (RFU) [2]: 0.5 to 1 rfu

B5: A-016 (IgG1 format) (antibody, V domains shown)
VH: QVQLQESGAEVKKPGASVKVSCKASGYTFTGYYMHWVRQAPGQGLEWMGGIIPIFGTANYAQKFQGRVTITADESTSTAYMELSSLRSEDTAVYYCAGAGMELTRSGAYYYYGMDVWGQGTTVTVSS
VL: QSALTQPASVSGSPGQSITISCTGTSSDIGGYTFVSWYQQHPGKAPKVMIHDVNNRPSGISNRFSGSKSGNTASLTISGLQAEDEADYYCSSVTSTNTYVFGTGTKVTVL
notes: human IgG1 format
EC50 [3]: < 0.02 nM

B6: C-016 (Fab format) (Fab, V domains shown)
VH: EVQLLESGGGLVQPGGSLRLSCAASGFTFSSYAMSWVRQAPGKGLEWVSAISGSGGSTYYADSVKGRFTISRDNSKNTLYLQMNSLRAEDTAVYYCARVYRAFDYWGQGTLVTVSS
VL: ASVLTQPPSVSAAPGQKVTISCSGSSSNIGNNYVSWYQQLPGTAPKLLIYDNNKRPSGIPDRFSGSKSGTSATLGITGLQAEDEADYYCHLYTEAESHWVFGGGTKLTVL
notes: Fab from E. coli lysate
A450 [4]: < 1
A450 [5]: < 0.1

B7: C-002 (Fab format) (Fab, V domains shown)
VH: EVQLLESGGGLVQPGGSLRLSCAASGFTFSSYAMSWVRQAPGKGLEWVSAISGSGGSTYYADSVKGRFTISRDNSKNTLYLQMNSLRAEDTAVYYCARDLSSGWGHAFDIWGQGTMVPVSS
VL: ASVLTQPPSVSAAPGQKVTISCSGSSSNIGNNYVSWYQQLPGTAPKLLIYDNNKRPSGIPDRFSGSKSGTSATLGITGLQAEDEADYYCLSYTTSEHHLVFGGGTKLTVL
notes: Fab from E. coli lysate
A450 [4]: < 1
A450 [5]: < 0.1

B8: A-010 (scFv format) (scFv, V domains shown)
VH: QVQLVQSGAEVKKPGASVKVSCKASGYTFTSYGISWVRQAPGQGLEWMGWISAYNGNTNYAQKLQGRVTMTTDTSTSTAYMELRSLRSDDTAVYYCARVPAWSGQFDYWGQGTLVTVSS
VL: QSALTQPASVSGSPGQSITISCTGSSSDVGGYNYVSWYQQYPGKAPKLMIYDVRSRPSGVSNRFSGSKSGNTASLTISGLQAEDEADYYCTSYTSSNTLVIFGGGTKVTVL
notes: scFv
ELISA binding signal (RFU) [1]: 0.5 to 1 rfu
ELISA binding signal (RFU) [2]: 0.5 to 1 rfu

B9: C-020 (Fab format) (Fab, V domains shown)
VH: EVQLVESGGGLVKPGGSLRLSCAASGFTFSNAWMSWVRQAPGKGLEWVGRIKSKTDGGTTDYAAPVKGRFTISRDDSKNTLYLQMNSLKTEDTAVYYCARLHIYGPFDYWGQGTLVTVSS
VL: SYELTQPPSVSVSPGQTASITCSGDKLGDKYASWYQQKPGQSPVLVIYQDSKRPSGIPERFSGSNSGNTATLTISGTQAEDEADYYCLSYLARSGSVVFGGGTKLTVL
notes: Fab from E. coli lysate
A450 [4]: < 1

B10: C-023 (Fab format) (Fab, V domains shown)
VH: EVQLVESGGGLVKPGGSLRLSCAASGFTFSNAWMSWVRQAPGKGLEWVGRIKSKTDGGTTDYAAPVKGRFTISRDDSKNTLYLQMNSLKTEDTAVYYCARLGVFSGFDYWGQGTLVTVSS
VL: SYELTQPPSVSVSPGQTASITCSGDKLGDKYASWYQQKPGQSPVLVIYQDSKRPSGIPERFSGSNSGNTATLTISGTQAEDEADYYCHTWTHHSLAVVFGGGTKLTVL
notes: Fab from E. coli lysate
A450 [4]: < 1
A450 [5]: < 0.1

B11: A-012 (scFv format) (scFv, V domains shown)
VH: EVQLLESGGGLIQPGGSLRLSCAVSGFTVSSNYMSWVRQAPGKGLEWVSVIYSGGSTYYADSVKGRFTISRDNSKNTLYLQMNSLRAEDTAVYYCARGNPYYYGDLQVNFDYWGQGTLVTVSS
VL: QAVVTQEPSLTVSPGGTVTLTCASSTGAVTSGYYPNWFQQKPGQAPRALIYSTSNKHSWTPARFSGSLLGGKAALTLSGVQPEDEAEYYCLLYYGGAWVFGGGTKLTVL
notes: scFv
ELISA binding signal (RFU) [1]: 0.5 to 1 rfu
ELISA binding signal (RFU) [2]: 0.5 to 1 rfu

B12: C-015 (Fab format) (Fab, V domains shown)
VH: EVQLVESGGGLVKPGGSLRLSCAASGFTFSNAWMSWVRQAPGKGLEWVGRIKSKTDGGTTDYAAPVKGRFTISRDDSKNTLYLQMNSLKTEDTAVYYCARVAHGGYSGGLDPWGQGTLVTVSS
VL: SYELTQPPSVSVSPGQTASITCSGDKLGDKYASWYQQKPGQSPVLVIYQDSKRPSGIPERFSGSNSGNTATLTISGTQAEDEADYYCSSTGTAHTLAVFGGGTKLTVL
notes: Fab from E. coli lysate
A450 [4]: < 1
A450 [5]: < 0.1

B13: C-017 (Fab format) (Fab, V domains shown)
VH: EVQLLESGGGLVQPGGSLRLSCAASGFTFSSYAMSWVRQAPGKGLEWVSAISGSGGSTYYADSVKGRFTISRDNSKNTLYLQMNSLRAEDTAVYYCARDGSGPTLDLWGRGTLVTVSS
VL: DIQMTQSPSSLSASVGDRVTITCRASQSISSYLNWYQQKPGKAPKLLIYAASSLQSGVPSRFSGSGSGTDFTLTISSLQPEDFATYYCQQHRYIPPWTFGQGTKVEIK
notes: Fab from E. coli lysate
A450 [4]: < 1

B14: C-021 (Fab format) (Fab, V domains shown)
VH: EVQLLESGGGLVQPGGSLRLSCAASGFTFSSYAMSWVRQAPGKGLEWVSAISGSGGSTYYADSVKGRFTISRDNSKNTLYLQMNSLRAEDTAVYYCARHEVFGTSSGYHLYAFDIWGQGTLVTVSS
VL: DIQMTQSPSSLSASVGDRVTITCRASQSISSYLNWYQQKPGKAPKLLIYAASSLQSGVPSRFSGSGSGTDFTLTISSLQPEDFATYYCQQWSGLPLTFGQGTKVEIK
notes: Fab from E. coli lysate
A450 [4]: < 1
A450 [5]: < 0.1

B15: C-024 (Fab format) (Fab, V domains shown)
VH: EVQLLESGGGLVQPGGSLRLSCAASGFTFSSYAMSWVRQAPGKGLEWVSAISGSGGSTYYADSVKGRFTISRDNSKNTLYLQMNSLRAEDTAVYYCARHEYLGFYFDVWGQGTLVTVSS
VL: SYELTQPPSVSVSPGQTASITCSGDKLGDKYASWYQQKPGQSPVLVIYQDSKRPSGIPERFSGSNSGNTATLTISGTQAEDEADYYCLASHRLTLNYVFGGGTKLTVL
notes: Fab from E. coli lysate
A450 [4]: < 1

B16: A-015 (scFv format) (scFv, V domains shown)
VH: not shown
VL: QPVLTQSPSASASLGASVKLTCTLSSGHTNYAIAWRQQQPGKAPRYLMLLNSDGSHTRGGGIPDRFSGSSSGAERYLTISSLQSEDEADYYCMIWHNNAWVFGGGTKLAVL
notes: scFv
ELISA binding signal (RFU) [1]: 0.5 to 1 rfu
ELISA binding signal (RFU) [2]: 0.5 to 1 rfu

B17: A-003 (scFv format) (scFv, V domains shown)
VH: VQLVQSGAEVKKPGSSVKVSCKASGGTFSSYAISWVRQAPGQGLEWMGGIIPIFGTANYAQKFQGRVTITADESTSTAYMELSSLRSEDTAVYYCASPRIQLWAAGGFDYWGQGTLVTVSS
VL: QSALTQPASVSGSPGQSITISCTGTSSDVGGYNLVSWYQQHPGKAPKLMIYDVSNRPSGVSNRFSGSKSGNTASLTISGLQAEDEADYYCSSFTTSTTLVFGGGTKLTVL
notes: scFv
ELISA binding signal (RFU) [6]: 0.1 to 0.5 rfu
ELISA binding signal (RFU) [7]: 0.1 to 0.5 rfu

B18: A-025 (scFv format) (scFv, V domains shown)
VH: QVQLVQSGAEVKKPGSSVKVSCKASGGTFSSYAISWVRQAPGQGLEWMGGIIPIFGTANYAQKFQGRVTITADESTSTAYMELTSLRSEDTAVYYCARGGWLRQNWFDPWGQGTLVTVSS
VL: SSELTQDPAVSVALGQTVRITCQGDSLRSYYASWYQQKPGQAPVLVIYGKNNRPSGIPDRFSGSSSGNTASLTITGAQAEDEADYYCNSRDSSGNHPRVFGGGTKLTVL
notes: scFv
ELISA binding signal (RFU) [6]: 0.1 to 0.5 rfu
ELISA binding signal (RFU) [7]: 0.1 to 0.5 rfu

B19: A-027 (scFv format) (scFv, V domains shown)
VH: QVQLVQSGAEVKKPGSSVKVSCKASGGTFSSYAISWVRQAPGQGLEWMGGIIPIFGTANYAQKFQGRVTITADKSTSTAYMELSSLRSEDTAVYYCARARGSTWGYFDYWGQGTLVTVSS
VL: EIVLTQSPASLSLSPGERVTLSCRASQSVSNYLAWYQQKPGQAPRLLIYDASNRATGIPARFSGSGSGTDFTLTISSLEPEDFAVYYCQQRDNWPLTFGGGTKVEIK
notes: scFv
ELISA binding signal (RFU) [6]: 0.1 to 0.5 rfu
ELISA binding signal (RFU) [7]: 0.1 to 0.5 rfu

B20: A-028 (scFv format) (scFv, V domains shown)
VH: QVQLVQSGAEVKKPGSSVKVSCKASGGTFSSYAISWVRQAPGQGLEWMGGIIPIFGTANYAQKFQGRVTITADESTSTAYMELSSLRSEDTAVYYCARVGVEYQLLWYFDYWGQGTLVTVSS
VL: DIQMTQSPSSLSASVGDRVTLTCRTSQTISNYLNWYQQKPGKAPKLLVYAASNLQSWVPSRFSGSGSGTDFTLTISSLQPEDFATYYCQQSYNASFGGGTKVEFK
notes: scFv
ELISA binding signal (RFU) [6]: 0.1 to 0.5 rfu
ELISA binding signal (RFU) [7]: 0.1 to 0.5 rfu

B21: A-029 (scFv format) (scFv, V domains shown)
VH: QVQLVQSGAEVKKPGSSVKVSCKASGGTFSSYAISWVRQAPGQGLEWMGGIIPIFGTANYAQKFQGRVTITADESTGTAYMELSSLRSEDTAVYYCARSYYYYYGMDVWGQGTTVTVSS
VL: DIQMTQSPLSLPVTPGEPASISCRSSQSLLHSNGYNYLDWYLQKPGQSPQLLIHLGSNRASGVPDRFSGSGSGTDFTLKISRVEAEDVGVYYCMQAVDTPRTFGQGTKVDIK
notes: scFv
ELISA binding signal (RFU) [6]: 0.1 to 0.5 rfu
ELISA binding signal (RFU) [7]: 0.1 to 0.5 rfu
